For experiment [1], the target named is T1, Fc fused hCD122 (monovalent) (human, UniProt P14784 27-240, limits assumed).
T1 construct: described only as Fc fused, monovalent
T1 sequence (looked up): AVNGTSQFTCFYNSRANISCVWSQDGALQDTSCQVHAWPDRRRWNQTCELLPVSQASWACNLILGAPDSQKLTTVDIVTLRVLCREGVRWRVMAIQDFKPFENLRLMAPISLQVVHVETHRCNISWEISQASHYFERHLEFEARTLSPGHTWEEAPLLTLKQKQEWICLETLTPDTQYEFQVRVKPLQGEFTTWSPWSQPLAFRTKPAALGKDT
The experiment can be described thus: SPR, VHH dimer in the mobile phase, Fc fused hCD122 immobilized. The method, then: (§1) The affinity of the non-PEGylated and the PEGylated forms of DR638 and DR736 prepared in substantial accordance with the foregoing were evaluated by surface plasmon resonance with the VHH dimer molecule in the mobile phase and an immobilized Fc fused hCD122 and hCD132 monovalent and bivalent hCD122/hCD132 Fc construct.

Experiment [2] concerns the target T2, Fc fused hCD132 (monovalent) (human, UniProt P31785 23-262, limits assumed).
T2 construct: described only as Fc fused, monovalent
T2 sequence (looked up): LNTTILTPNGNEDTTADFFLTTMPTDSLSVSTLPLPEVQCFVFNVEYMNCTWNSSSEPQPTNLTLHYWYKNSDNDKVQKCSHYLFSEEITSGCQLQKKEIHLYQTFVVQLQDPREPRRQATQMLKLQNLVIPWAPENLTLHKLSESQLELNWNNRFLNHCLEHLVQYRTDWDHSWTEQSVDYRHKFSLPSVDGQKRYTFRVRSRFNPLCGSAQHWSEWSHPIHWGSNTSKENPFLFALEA
The experiment can be described thus: SPR, VHH dimer in the mobile phase, Fc fused hCD132 immobilized. The method, then: as §1

Drawing on patent US20250333520A1 (SYNTHEKINE, published 2025), this text covers Kd for three molecules.

Bounds are passed on as bounds.

B1: DR736(DR588-DR231) (bispecific antibody)
chain: QVQLQESGGGSVQVGGSLKLSCAASGYTYSSYYCMGWFRQAPGKEREGVAAIDSDGSTSYADSVKGRFTISQDDAKNTLYLQMNSLKPEDTAMYYCAASYEVVDCYPSGYGQDYWGKGTQVTVSSGGGSQVQLQESGGGSVQAGGSLRLSCTASGFTFDDREMNWYRQAPGNECELVSTISSDGSTYYADSVKGRFTISQDNAKNTVYLQMDSVKPEDTAVYYCAADFMIAIQAPGAGCWGQGTQVTVSSASHHHHHH
notes: DR588 VHH - GGGS - DR231 VHH - ASHHHHHH; also called anti-IL2Rb/g VHH2 DR736; non-PEGylated DR736
B1: the Kd was roughly 21 nM in experiment [1] and roughly 6.5 nM in experiment [2].

B2: DR638(DR229-DR587) (bispecific antibody)
chain: QVQLQESGGGLVQPGGSLRLSCTASGFSFSSYPMTWARQAPGKGLEWVSTIASDGGSTAYAASVEGRFTISRDNAKSTLYLQLNSLKTEDTAMYYCTKGYGDGTPAPGQGTQVTVSSGGGSQVQLQESGGGSVQVGGSLRLSCATSGDTKSIRCMGWFRQTPGKEREGIAAIDREGFATYADSVYDRFTIAQDNAQNTLYLEMNALKPEDTAMYYCAAQNMCRVVRGAMTGVDYWGKGTQVTVSSASHHHHHH
notes: DR229 VHH - GGGS - DR587 VHH - ASHHHHHH; also called anti-IL2Rb/g VHH2 DR638; non-PEGylated DR638
B2: the Kd in experiment [1] is less than 0.5 nM; in experiment [2] it was roughly 0.5 nM.

B3: DR638-PEG40K2a (bispecific antibody)
chain: QVQLQESGGGLVQPGGSLRLSCTASGFSFSSYPMTWARQAPGKGLEWVSTIASDGGSTAYAASVEGRFTISRDNAKSTLYLQLNSLKTEDTAMYYCTKGYGDGTPAPGQGTQVTVSSGGGSQVQLQESGGGSVQVGGSLRLSCATSGDTKSIRCMGWFRQTPGKEREGIAAIDREGFATYADSVYDRFTIAQDNAQNTLYLEMNALKPEDTAMYYCAAQNMCRVVRGAMTGVDYWGKGTQVTVSSASHHHHHH
modifications: one 40 KDa branched polyethylene glycol (mono-PEGylated, coupled with sodium cyanoborohydride at pH ~6.3; residue not stated)
notes: also called PEGylated DR638
With B3, the Kd in experiment [1] was roughly 1.1 nM; in experiment [2], roughly 16.3 nM.
